Results published in the supplement of paper PMC10567573.

B1: SNAP91 (parent)
chain: FAAPSPATTASPAKVDSSGVIDLF

Variants of: B1
Assay: protein stability index of a GFP-peptide fusion (GPS, HEK-293T) (PSI 1-6); higher = more stable
Conditions: c terminus: a fixed tail appended
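Note: lentivirally expressed fusions sorted by FACS into six bins by GFP to DsRed ratio, PSI derived from sequencing read proportions per bin multiplied by bin number.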

Variant | protein stability index
FAAPSPATTASPAKDDSSGVIDLF [V15D] | 2.68
FAAPSPATTASPAKCDSSGVIDLF [V15C] | 1.97
FAAPSPATTASPAKADSSGVIDLF [V15A] | 2.52
FAAPSPATTASPAKFDSSGVIDLF [V15F] | 1.97
FAAPSSATTASPAKVDSSGVIDLF [P6S] | 2.65
FAAPSRATTASPAKVDSSGVIDLF [P6R] | 1.95
FAAPSNATTASPAKVDSSGVIDLF [P6N] | 2.94
FAAPSFATTASPAKVDSSGVIDLF [P6F] | 2.02
FAAPSHATTASPAKVDSSGVIDLF [P6H] | 2.36
FAAPSDATTASPAKVDSSGVIDLF [P6D] | 3.01
FAAPSYATTASPAKVDSSGVIDLF [P6Y] | 1.7
FAAPSCATTASPAKVDSSGVIDLF [P6C] | 2.32
FAAPSVATTASPAKVDSSGVIDLF [P6V] | 1.82
FAAPSKATTASPAKVDSSGVIDLF [P6K] | 2.16
FAAPSLATTASPAKVDSSGVIDLF [P6L] | 1.49
FAAPSEATTASPAKVDSSGVIDLF [P6E] | 3.08
FAAPSAATTASPAKVDSSGVIDLF [P6A] | 2.18
FAAPSGATTASPAKVDSSGVIDLF [P6G] | 2.31
FAAPSMATTASPAKVDSSGVIDLF [P6M] | 2.44
FAAPSIATTASPAKVDSSGVIDLF [P6I] | 1.84
FAAPSWATTASPAKVDSSGVIDLF [P6W] | 2.35
FAAPSTATTASPAKVDSSGVIDLF [P6T] | 2.23
FAAPSQATTASPAKVDSSGVIDLF [P6Q] | 2.63
FAAPSPATNASPAKVDSSGVIDLF [T9N] | 2.58

Variant | protein stability index
FAAPSPATLASPAKVDSSGVIDLF [T9L] | 2.25
FAAPSPATVASPAKVDSSGVIDLF [T9V] | 2.61
FAAPSPATYASPAKVDSSGVIDLF [T9Y] | 1.67
FAAPSPATIASPAKVDSSGVIDLF [T9I] | 2.16
FAAPSPATFASPAKVDSSGVIDLF [T9F] | 1.63
FAAPSPATAASPAKVDSSGVIDLF [T9A] | 3.02
FAAPSPATQASPAKVDSSGVIDLF [T9Q] | 2.46
FAAPSPATEASPAKVDSSGVIDLF [T9E] | 2.77
FAAPSPATSASPAKVDSSGVIDLF [T9S] | 2.77
FAAPSPATWASPAKVDSSGVIDLF [T9W] | 3.89
FAAPSPATMASPAKVDSSGVIDLF [T9M] | 2.31
FAAPSPATDASPAKVDSSGVIDLF [T9D] | 3.22
FAAPSPATCASPAKVDSSGVIDLF [T9C] | 2.43
FAAPSPATRASPAKVDSSGVIDLF [T9R] | 2.42
FAAPSPATKASPAKVDSSGVIDLF [T9K] | 2.91
FAAPSPATHASPAKVDSSGVIDLF [T9H] | 2.66
FAAPSPATGASPAKVDSSGVIDLF [T9G] | 2.28
FAAPSPATTAMPAKVDSSGVIDLF [S11M] | 2.28
FAAPSPATTAQPAKVDSSGVIDLF [S11Q] | 2.56
FAAPSPATTALPAKVDSSGVIDLF [S11L] | 2.77
FAAPSPATTAYPAKVDSSGVIDLF [S11Y] | 2.35
FAAPSPATTAKPAKVDSSGVIDLF [S11K] | 2.6
FAAPSPATTAGPAKVDSSGVIDLF [S11G] | 2.45
FAAPSPATTAEPAKVDSSGVIDLF [S11E] | 2.69

Variant | protein stability index
FAAPSPATTAIPAKVDSSGVIDLF [S11I] | 2.3
FAAPSPATTAVPAKVDSSGVIDLF [S11V] | 2.38
FAAPSPATTADPAKVDSSGVIDLF [S11D] | 2.73
FAAPSPATTACPAKVDSSGVIDLF [S11C] | 2.14
FAAPSPATTARPAKVDSSGVIDLF [S11R] | 2.45
FAAPSPATTANPAKVDSSGVIDLF [S11N] | 2.38
FAAPSPATTAHPAKVDSSGVIDLF [S11H] | 2.08
FAAPSPATTAFPAKVDSSGVIDLF [S11F] | 1.96
FAAPSPATTATPAKVDSSGVIDLF [S11T] | 2.48
FAAPSPATTAWPAKVDSSGVIDLF [S11W] | 1.33
FAAPSPATTAAPAKVDSSGVIDLF [S11A] | 2.47
FAAPSPATTASPAPVDSSGVIDLF [K14P] | 2.7
FAAPSPATTASPALVDSSGVIDLF [K14L] | 2.28
FAAPSPATTASPANVDSSGVIDLF [K14N] | 2.52
FAAPSPATTASPAWVDSSGVIDLF [K14W] | 1.58
FAAPSPATTASPADVDSSGVIDLF [K14D] | 2.47
FAAPSPATTASPAHVDSSGVIDLF [K14H] | 2.46
FAAPSPATTASPAYVDSSGVIDLF [K14Y] | 2.24
FAAPSPATTASPASVDSSGVIDLF [K14S] | 2.29
FAAPSPATTASPAIVDSSGVIDLF [K14I] | 2.61
FAAPSPATTASPAGVDSSGVIDLF [K14G] | 2.05
FAAPSPATTASPAFVDSSGVIDLF [K14F] | 1.86
FAAPSPATTASPARVDSSGVIDLF [K14R] | 2.28
FAAPSPATTASPAEVDSSGVIDLF [K14E] | 2.81

Variant | protein stability index
FAAPSPATTASPAMVDSSGVIDLF [K14M] | 2.3
FAAPSPATTASPATVDSSGVIDLF [K14T] | 2.38
FAAPSPATTASPACVDSSGVIDLF [K14C] | 2.41
FAAPSPATTASPAQVDSSGVIDLF [K14Q] | 2.48
FAAPSPATTASPAAVDSSGVIDLF [K14A] | 2.94
FAAPSPATTASPAVVDSSGVIDLF [K14V] | 2.77
FAAPRPATTASPAKVDSSGVIDLF [S5R] | 2.1
FAAPLPATTASPAKVDSSGVIDLF [S5L] | 2.81
FAAPKPATTASPAKVDSSGVIDLF [S5K] | 2.66
FAAPDPATTASPAKVDSSGVIDLF [S5D] | 3
FAAPEPATTASPAKVDSSGVIDLF [S5E] | 3.18
FAAPWPATTASPAKVDSSGVIDLF [S5W] | 2.62
FAAPYPATTASPAKVDSSGVIDLF [S5Y] | 1.96
FAAPIPATTASPAKVDSSGVIDLF [S5I] | 1.95
FAAPHPATTASPAKVDSSGVIDLF [S5H] | 1.96
FAAPFPATTASPAKVDSSGVIDLF [S5F] | 1.97
FAAPMPATTASPAKVDSSGVIDLF [S5M] | 2.24
FAAPCPATTASPAKVDSSGVIDLF [S5C] | 2.16
FAAPVPATTASPAKVDSSGVIDLF [S5V] | 2.64
FAAPQPATTASPAKVDSSGVIDLF [S5Q] | 2.34
FAAPGPATTASPAKVDSSGVIDLF [S5G] | 2.45
FAAPNPATTASPAKVDSSGVIDLF [S5N] | 2.59
